In US20210033615A1 (DEUTSCHES KREBSFORSCHUNGSZENTRUM STIFTUNG DOES OFFENTLICHEN …, published 2021):

Key:
[1] = target: T1, 6-phosphofructo-2-kinase/fructose-2,6-biphosphatase 4 (PFKFB4) (human, UniProt Q16877 1-469); assay: NanoBiT competition in HEK293 cells
T1 construct: It was expressed inside cells (GSCs, HEK293) or in yeast two-hybrid; any tags in the coIP and Y2H are not described; also called untagged PFKFB4

[2] = target: T2, PFKFB4 tagged at the C-terminal with the Large BiT (human, UniProt Q16877 1-469); assay: NanoBiT luminescence complementation in HEK293 cells; counted positive if the signal is at least 10-fold that of the negative control
T2 construct: Expressed in HEK293 cells for the NanoBiT assay; also called C-ter[LgBiT]PFKFB4; tagged PFKFB4; not shown: Large BiT (LgBiT) tag and any linker from the pLVX1.1-C[TK/LgBiT]; NanoBiT vector
T2 sequence (Q16877 whole entry): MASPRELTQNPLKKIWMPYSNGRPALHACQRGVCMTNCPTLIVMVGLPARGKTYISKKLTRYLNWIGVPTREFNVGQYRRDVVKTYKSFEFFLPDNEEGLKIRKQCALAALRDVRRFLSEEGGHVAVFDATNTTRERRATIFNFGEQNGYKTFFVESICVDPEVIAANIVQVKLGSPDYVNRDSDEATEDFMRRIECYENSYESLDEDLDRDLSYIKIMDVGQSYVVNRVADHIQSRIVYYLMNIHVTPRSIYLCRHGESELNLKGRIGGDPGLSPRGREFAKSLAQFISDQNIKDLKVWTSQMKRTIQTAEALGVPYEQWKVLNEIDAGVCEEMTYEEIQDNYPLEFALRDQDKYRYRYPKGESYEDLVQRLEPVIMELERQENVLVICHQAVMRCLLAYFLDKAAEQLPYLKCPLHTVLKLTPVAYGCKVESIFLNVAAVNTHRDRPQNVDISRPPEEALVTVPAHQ
Source text: The NanoBiT® assay from Promega is widely used to investigate protein-protein interactions. The NanoBiT Assay is described in detail in Dixon et al., (2016) “NanoLuc Complementation Reporter Optimized for Accurate Measurement of Protein Interactions in Cells” (ACS Chem. Biol., 11, 400-408; which is incorporated herein by reference in its entirety). The inventors adapted this method to develop a cellular screening assay in order to investigate the interaction of PFKFB4 with FBXO28. In that respect, both genes were cloned into pLVX vectors containing the four NanoBiT® versions (pLVX1.1-N[TK/LgBiT], pLVX2.1-N[TK/SmBiT], pLVX1.1-C[TK/LgBiT] and pLVX2.1-C[TK/SmBiT]), allowing the small and large BiT tags to be at the N- or C-terminal of both proteins of interest. As negative control, a vector containing a HaloTag protein cloned to the small BiT was used in combination with the large BiT cloned to either FBXO28 or PFKFB4.
All vectors were transfected in HEK293 cells and the combinations were tested as depicted in FIG. 7A. The luminescent signal was detected with the Nano-Glo® Luciferase Assay System from Promega. The interaction was considered positive if the signal was at least 10-fold of the respective negative control. […]

T1 sequence (Q16877 whole entry): as above

B1: FBXO28 tagged at the N-terminal with the small BiT (other)
chain: MAAAAEERMAEEGGGGQGDGGSSLASGSTQRQPPPPAPQHPQPGSQALPAPALAPDQLPQNNTLVALPIVAIENILSFMSYDEISQLRLVCKRMDLVCQRMLNQGFLKVERYHNLCQKQVKAQLPRRESERRNHSLARHADILAAVETRLSLLNMTFMKYVDSNLCCFIPGKVIDEIYRVLRYVNSTRAPQRAHEVLQELRDISSMAMEYFDEKIVPILKRKLPGSDVSGRLMGSPPVPGPSAALTTMQLFSKQNPSRQEVTKLQQQVKTNGAGVTVLRREISELRTKVQEQQKQLQDQDQKLLEQTQIIGEQNARLAELERKLREVMESAVGNSSGSGQNEESPRKRKKATEAIDSLRKSKRLRNRK
notes: Expressed in HEK293 cells for the NanoBiT assay; also called N-ter[SmBiT]FBXO28; tagged FBXO28; not shown: Small BiT (SmBiT) tag and any linker from the pLVX2.1-N[TK/SmBiT]; NanoBiT vector
binding result [1]: binds
binding result [2]: binds
